PMC9524831 (Science Advances, 2022)
Residue numbers refer to the chain shown, from its start. In names and notes the source's numbering stands.

B1: RNF220(R363Q) (enzyme, mouse, UniProt Q6PDX6 1-566, looked up)
chain: MDLHRAAFKMENSSYLPNPLASPALMVLASTAEASRDASIPCQQPRPFGVPVSVDKDVHIPFTNGSYTFASMYHRQGGVPGTFANRDFPPSLLHLHPQFAPPNLDCTPISMLNHSGVGAFRPFASTEDRESYQSAFTPAKRLKNCHDTESPHLRFSDADGKEYDFGTQLPSSSPGSLKVDDTGKKIFAVSGLISDRETSSSPEDRNDRCKKKAVALFDSQAPLCPICQVLLRPSELQEHMEQELEQLAQLPASKNSLLKDAMAPGTPKSLLLSASIKREGDSPTASPHSSATEDLHHSDRYQTFLRVRANRQTRLNARIGKMKRRKQDEGQREGSCMAEDDAVDIEHADSNRFEEYEWCGQKQIRATTLLEGGFRGSGFVMCSGKENPDSDADLDVDGDDTLEYGKPQYTEADVIPCTGEEPGEAKEREALRGAVLNGGPPSTRITPEFSKWASDEMPSTSNGEGSKQEAMQKTCKNSDIEKITEESAVTTFEALKARVRELERQLSRGDRYKCLICMDSYSMPLTSIQCWHVHCEECWLRTLGAKKLCPQCNTITAPGDLRRIYL
B2: RNF220(R365Q) (enzyme, mouse, UniProt Q6PDX6 1-566, looked up)
chain: B1 chain with Q363R, R365Q

Molecular target: HA-GluA1 (mouse AMPA receptor subunit GluA1) (mouse, UniProt P23818 19-907)
Sequence (P23818 19-907): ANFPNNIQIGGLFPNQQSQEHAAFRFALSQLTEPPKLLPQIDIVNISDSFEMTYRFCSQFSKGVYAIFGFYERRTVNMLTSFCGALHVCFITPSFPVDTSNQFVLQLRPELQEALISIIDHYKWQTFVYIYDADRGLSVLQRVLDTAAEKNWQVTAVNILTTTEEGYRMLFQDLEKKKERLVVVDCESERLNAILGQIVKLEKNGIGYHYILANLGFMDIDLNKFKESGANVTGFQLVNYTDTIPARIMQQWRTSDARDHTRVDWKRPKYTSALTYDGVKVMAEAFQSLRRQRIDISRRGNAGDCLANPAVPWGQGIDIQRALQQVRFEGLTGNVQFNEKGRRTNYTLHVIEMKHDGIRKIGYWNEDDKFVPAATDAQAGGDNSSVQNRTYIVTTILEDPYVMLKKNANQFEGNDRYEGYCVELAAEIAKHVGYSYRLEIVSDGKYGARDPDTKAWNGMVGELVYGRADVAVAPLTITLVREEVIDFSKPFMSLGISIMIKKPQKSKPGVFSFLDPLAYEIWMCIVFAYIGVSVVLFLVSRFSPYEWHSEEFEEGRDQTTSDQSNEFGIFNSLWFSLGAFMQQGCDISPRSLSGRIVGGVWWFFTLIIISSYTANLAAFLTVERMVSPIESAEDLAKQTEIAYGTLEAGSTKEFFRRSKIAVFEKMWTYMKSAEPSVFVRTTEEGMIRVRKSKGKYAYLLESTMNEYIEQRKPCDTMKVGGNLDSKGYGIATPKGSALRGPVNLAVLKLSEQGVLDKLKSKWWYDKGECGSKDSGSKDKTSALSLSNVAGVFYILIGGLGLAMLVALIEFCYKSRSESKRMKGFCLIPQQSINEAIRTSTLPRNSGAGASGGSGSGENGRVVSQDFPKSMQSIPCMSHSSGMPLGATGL
Test: cell-based or functional assay

Binder	GluA1 polyubiquitination level relative to wild-type RNF220 transfection
B1	0.34
B2	0.3
